Residue numbers refer to the chain shown, from its start.
Experiments:
Test in all cases: cell_activity; PAM 5'-ATTG-3'
Details in all cases: tags: pcDNA3.1 expression
[1] = biological target: T1, variant nuclease D590G combination (P14R, D32R, I61R, E311R, D590G)
T1 chain: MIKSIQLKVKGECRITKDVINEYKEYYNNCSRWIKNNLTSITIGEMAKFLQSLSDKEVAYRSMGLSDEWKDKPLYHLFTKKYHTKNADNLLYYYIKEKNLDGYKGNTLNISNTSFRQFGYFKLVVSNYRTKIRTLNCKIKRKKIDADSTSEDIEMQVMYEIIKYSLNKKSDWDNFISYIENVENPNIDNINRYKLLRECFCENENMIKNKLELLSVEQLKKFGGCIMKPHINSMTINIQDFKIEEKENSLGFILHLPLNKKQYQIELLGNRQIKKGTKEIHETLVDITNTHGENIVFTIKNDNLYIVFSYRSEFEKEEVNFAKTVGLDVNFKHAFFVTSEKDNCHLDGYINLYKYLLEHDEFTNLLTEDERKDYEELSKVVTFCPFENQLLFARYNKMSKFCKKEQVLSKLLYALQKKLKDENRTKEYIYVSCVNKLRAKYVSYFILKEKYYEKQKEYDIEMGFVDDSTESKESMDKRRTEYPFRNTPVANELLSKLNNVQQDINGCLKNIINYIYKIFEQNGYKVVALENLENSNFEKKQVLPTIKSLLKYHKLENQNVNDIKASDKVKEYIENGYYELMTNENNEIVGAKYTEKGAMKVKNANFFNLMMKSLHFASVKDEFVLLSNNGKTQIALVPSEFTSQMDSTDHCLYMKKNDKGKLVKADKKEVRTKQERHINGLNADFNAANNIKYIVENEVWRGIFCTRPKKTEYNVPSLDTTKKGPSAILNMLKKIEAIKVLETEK

[2] = biological target: T2, variant nuclease K35G combination (P14R, D32R, I61R, E311R, K35G)
T2 chain: T1 chain with K35G, G590D

[3] = biological target: T3, variant nuclease E736G combination (P14R, D32R, I61R, E311R, E736G)
T3 chain: T1 chain with G590D, E736G

B1: EMX1 crRNA ; EMX1 target (ssRNA ; dsDNA)
RNA: CUUGUUGUAUAUGUCCUUUUAUAGGUAUUAAACAACCCGCCGCUUCCUGAGCCAUC
DNA 1: CCGCCGCTTCCTGAGCCATC
DNA 2: GATGGCTCAGGAAGCGGCGG
[1]
  indel editing activity: 7.43 fold of WT
[2]
  indel editing activity: 6.93 fold of WT
[3]
  indel editing activity: 10.1 fold of WT

— US20240035010, “COMPOSITIONS COMPRISING A VARIANT POLYPEPTIDE AND USES THEREOF” (Arbor Biotechnologies, Inc., published 2024)
